Reference: paper PMC7826273
Substitutions are numbered along the chain they refer to. Where two headings read alike, the source gives them in different places.

Key:
EF-Tu (GTP form) = EF-Tu (GTP form) (UniProt P99152 1-394); test: competition
FmhB [1] = biological target: T1, FmhB (Staphylococcus aureus, UniProt Q2FVZ4 1-421); test: competition
T1 sequence: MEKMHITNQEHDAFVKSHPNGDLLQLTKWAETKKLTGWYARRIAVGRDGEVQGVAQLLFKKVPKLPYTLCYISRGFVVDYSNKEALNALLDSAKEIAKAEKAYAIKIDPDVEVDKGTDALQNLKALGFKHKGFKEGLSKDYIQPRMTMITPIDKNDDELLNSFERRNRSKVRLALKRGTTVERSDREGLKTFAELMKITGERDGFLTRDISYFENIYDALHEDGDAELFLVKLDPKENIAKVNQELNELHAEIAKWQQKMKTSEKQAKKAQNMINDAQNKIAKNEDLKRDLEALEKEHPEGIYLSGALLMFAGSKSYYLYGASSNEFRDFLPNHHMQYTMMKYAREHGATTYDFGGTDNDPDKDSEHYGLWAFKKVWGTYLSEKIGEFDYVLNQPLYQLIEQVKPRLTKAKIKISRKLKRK

FmhB [2] = biological target: T1, FmhB; test: size-exclusion chromatography
FmhB [3] = biological target: T1, FmhB; test: competition; remark: listed apart in the source
FmhB [4] = biological target: T1, FmhB; test: competition; remark: listed apart in the source
FmhB [5] = biological target: T1, FmhB; test: competition; remark: listed apart in the source

Sequence of EF-Tu (GTP form) (P99152 whole entry): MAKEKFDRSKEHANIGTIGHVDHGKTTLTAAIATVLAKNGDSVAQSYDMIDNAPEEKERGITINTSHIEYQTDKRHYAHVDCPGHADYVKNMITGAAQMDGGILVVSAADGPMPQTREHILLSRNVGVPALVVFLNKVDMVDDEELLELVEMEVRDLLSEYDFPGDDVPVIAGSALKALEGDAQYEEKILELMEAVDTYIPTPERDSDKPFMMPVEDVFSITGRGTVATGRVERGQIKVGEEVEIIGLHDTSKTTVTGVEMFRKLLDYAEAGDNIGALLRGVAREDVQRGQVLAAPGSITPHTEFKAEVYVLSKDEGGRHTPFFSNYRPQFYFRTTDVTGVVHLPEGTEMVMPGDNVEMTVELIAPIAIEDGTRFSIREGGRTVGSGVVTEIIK

B1: Gly-tRNAGly P1 (structured_RNA)
RNA: GCAGAAGUAGUUCAGCGGUAGAAUACAACCUUGCCAAGGUUGGGGUCGCGGGUUCGAAUCCCGUCUUCUGCUCCA
modifications: 3'-glycyl ester
binding signal (EF-Tu (GTP form)): 14 ± 3 % residual FmhB activity at 4 uM EF-Tu

B2: CHIM2 analogue (P1 with NP2 acceptor stem) (structured_RNA)
RNA: B1 RNA with A3G, A5G, U69C
modifications: 2'-triazole-nonadiyne on terminal A; penultimate C is dC
Ki (FmhB [1]): 1000 ± 160 nM

B3: tRNAGly P1 (GCC-1), unacylated (structured_RNA)
RNA: B1 RNA
binding result (FmhB [2]): no binding

B4: P1 stable Gly-tRNA analogue, 2' isomer (structured_RNA)
RNA: B1 RNA
modifications: 2'-(1,4-triazole-alkyne; nonadiyne) on terminal A; penultimate C is dC (pdCpA ligation)
Ki (FmhB [3]): 320 ± 10 nM

B5: P1_1 analogue (P1 with NP2 region 1) (structured_RNA)
RNA: GCAGAAGUAGUUCAACUUUUAGAAUACAACCUUGCCAAGGUUGGGGUGCGGGUUCGAAUCCCGUCUUCUGCUCCA
modifications: stable triazole-nonadiyne analogue (2' isomer presumed)
binding signal (FmhB [4]): 2 ± 0.3 fold reduction in Ki vs P1 analogue

B6: CHIM4 analogue (P1 with NP2 anticodon stem-loop) (structured_RNA)
RNA: GCAGAAGUAGUUCAGCGGUAGAAUACGUUCCUUCCCGGAACGGGGUCGCGGGUUCGAAUCCCGUCUUCUGCUCCA
modifications: 2'-triazole-nonadiyne on terminal A; penultimate C is dC
Ki (FmhB [1]): 220 ± 40 nM

B7: NP2 stable Gly-tRNA analogue, 2' isomer (structured_RNA)
RNA: GCGGGAGUAGUUCAACUUUUAGAACACGUUCCUUCCCGGAACGAGGUAUAGGUGUAAAUCCUAUCUUCCGCUCCA
modifications: 2'-(1,4-triazole-alkyne; nonadiyne) on terminal A; penultimate C is dC (pdCpA ligation)
Ki (FmhB [5]): 8.6 ± 2 nM

B8: CHIM1 analogue (NP2 with P1 acceptor stem) (structured_RNA)
RNA: B7 RNA with G3A, G5A, U55C, C69U
modifications: 2'-triazole-nonadiyne on terminal A; penultimate C is dC
Ki (FmhB [1]): 7.6 ± 0.7 nM

B9: NP2 stable Gly-tRNA analogue, 3' isomer (structured_RNA)
RNA: B7 RNA
modifications: 3'-(1,4-triazole-alkyne; nonadiyne) on terminal A; penultimate C is dC (pdCpA ligation)
Ki (FmhB [3]): 110 ± 6 nM

B10: CHIM3 analogue (NP2 with P1 anticodon stem-loop) (structured_RNA)
RNA: GCGGGAGUAGUUCAACUUUUAGAACACAACCUUGCCAAGGUUGAGGUAUAGGUGUAAAUCCUAUCUUCCGCUCCA
modifications: 2'-triazole-nonadiyne on terminal A; penultimate C is dC
Ki (FmhB [1]): 5.4 ± 0.3 nM

B11: CHIM5 analogue (NP2 with P1 anticodon stem-loop and acceptor stem) (structured_RNA)
RNA: B10 RNA with G3A, G5A, C69U
modifications: 2'-triazole-nonadiyne on terminal A; penultimate C is dC
Ki (FmhB [1]): 19 ± 2 nM
